Measured values from patent publication US6596504B2, “Treatment of prophylaxis of diseases caused by pilus-forming bacteria” (Washington University, priority 1993, dated 2003).

Columns and labels:
[1] = target: T1, PapD (Escherichia coli, UniProt P15319); experiment: ELISA: PapD binding to immobilized second site peptides of PapG; design: species or system E. coli; conditions: peptide coated on wells, 200 pmol PapD
T1 construct: (A) NAME/KEY: mat_; made in house; Lindberg et al. 1989
T1 sequence (P15319 22-239): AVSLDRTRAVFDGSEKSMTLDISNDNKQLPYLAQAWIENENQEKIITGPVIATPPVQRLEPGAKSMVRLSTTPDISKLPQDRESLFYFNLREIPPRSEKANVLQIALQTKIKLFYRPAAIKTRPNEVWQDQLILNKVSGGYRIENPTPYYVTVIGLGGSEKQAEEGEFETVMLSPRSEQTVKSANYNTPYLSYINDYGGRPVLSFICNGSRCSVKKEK
Description: Four synthetic peptides overlapping the PapG region from residue 156′ to 120′ (indicated in FIG. 20) were coated to wells of microtiter plates. The concentration of each peptide in the wells is indicated. Binding of 200 pmol/[…] of PapD to the immobilized peptide was determined by ELISA using anti-PapD antiserum.
For assaying the second site peptides, all the peptides were dissolved in dimethyl sulfoxide (DMSO, Sigma, St. Louis, Mo., USA) to a final concentration 2 mM. The stock solutions were diluted to a proper concentration in PBS and coated overnight on microtiter wells at 4° C. All the peptide solutions were adjusted to the same DMSO concentration. The subsequent steps followed the procedure described above.

[2] = target: T1, PapD; experiment: In vitro complex formation of PapD with MBP/G fusion proteins on silver stained IEF gel; format: binding, E. coli
Description: (A) PapD was incubated with 1 μg of amylose affinity purified MBP (lane), MBP-G1′-19′ (lane 2), MBP-G1′-81′ (lane 3), or MBP-G1′-140′ (lane 4) and complex formation was evaluated on the silver stained IEF gel. Positions of MBP/G fusions, PapD and the PapD-MBP-G1′-140′ complex are indicated.
The interaction between PapD and MBP/G fusion in vitro was assayed by incubating purified PapD (1 μg) and amylose bead affinity purified MBP/G fusion protein (1 μg) in 4 μl PBS for 30 minutes and then applied to IEF (pI 3-9), followed by silver staining. Another in vitro assay that is more quantitative is the ELISA described below.

[3] = tested on: HB101/pFJ3; experiment: Hemagglutination titer on co-expression of MBP/G fusions with the pap operon; format: cell-based, E. coli
Description: HB101/pFJ3 harbouring various MBP/G fusion plasmids was passaged on Trypticase Soy Agar (TSA, Becton Dickinson, Cockeysville, Md., USA) three times to induce P-pili expression. At the last passage, the expression of MBP/G fusions was induced on TSA containing 100 μM IPTG. The cells from different strains were then collected and the HA titers were determined as described (Jacob-Dubuisson et al., 1993b).
PapD is essential for P-pilus assembly (Hultgren et al., 1991). […] The ability of the MBP/G fusions to block pilus formation by inhibiting chaperone-subunit complex formation when co-expressed in trans with the pap operon was tested. Plasmids pMAL-p4, pMAL/G1′-19′, pMAL/G1′-81′ and pMAL/G1′-140′ were transformed into the strain HB101/pFJ3 which contains the pap operon under the control of its own promoter in the vector pACYC184 (Jacob-Dubuisson et al. 1993b). Each MBP/G fusion protein was localized in the periplasm as determined by SDS-PAGE and western blotting with anti-MBP antisera (data not shown). Hemagglutination (HA) assays were performed on the cells co-expressing the pap operon with either MBP (pMAL-p4) or with each of the MBP/G fusions. Co-expression of the MBP/G1′-140′ fusions with the pap operon decreased the HA titer 30 fold compared to the MBP control (see table 3).

[4] = tested on: HB101/pFJ3; experiment: Pili preparation and quantitation on co-expression of MBP/G fusions; format: cell-based, E. coli
Description: The cells obtained from TSA plates were collected. Pili were prepared from the same amounts of cells using the procedure described previously (Jacob-Dubuisson, et al., 1993b). These pili preparations were boiled in Lammeli sample buffer with 4 M urea, then analyzed on Coomassie blue stained SDS polyacrylamide gels. The relative amount of piliation was quantified by densitometric scanning of the PapA bands.

[5] = target: T1, PapD; experiment: ELISA: PapD binding to immobilized MBP/G fusion proteins; design: species or system E. coli; conditions: 50 pmol PapD
Description: (B) Amylose affinity purified NBP/G fusion proteins were coated to wells of microtiter plates. The concentration of the MBP/G proteins in the wells is indicated. Binding of 50 pmol/[…] of PapD to the immobilized proteins was determined by ELISA using anti-PapD antiserum.
Stock solutions of MBP/G fusion proteins in PBS were diluted to 40 pmol/50 μl with PBS. The solutions of the 40 pmol/50 μl MBP/G fusion proteins were serially diluted in PBS and 50 μl of each solution were used to coat the wells of a 96-well Nunc Immunoplate (Inter Med, DK-4000 Roskilde, Denmark) overnight at 4° C. The wells were then washed with PBS and blocked with 200 μl of […] in PBS for 2 hours at 25° C. The plates were washed vigorously three times with PBS and incubated with 50 μl of PapD diluted at 50 pmol PapD in 50 μl 3% BSA-PBS for 45 minutes at 25° C. After three washings with PBS, the wells were incubated with a 1:500 dilution of rabbit anti-PapD antiserum in 3% BSA-PBS for 45 minutes at 25° C. After three washings with PBS, the wells were incubated with a 1:1000 dilution of goat antiserum to rabbit IgG coupled to alkaline phosphatase in 3% BSA-PBS for 45 minutes at 25° C. […] The reaction was incubated for 1 hour in the dark at 25° C. and the absorbance at 405 nm was read.

[6] = target: T1, PapD; experiment: PapD-MBP/G interactions in vivo: co-elution of PapD on amylose affinity chromatography; format: binding, E. coli
Description: Strains carrying MBP or MBP/G fusion gene plasmids were induced in LB broth culture with 1 mM isopropylthiogalactoside (IPTG). Periplasmic extracts were prepared as described (Slonim et al., 1992). One tenth volume of 10×phosphate-buffered saline (PBS, 120 mM NaCl, 2.7 mM KCl, 10 mM Na2HPO4 and 2 mM KH2PO4, pH 7.4) was added to the periplasmic extract. Amylose resin was then added to the periplasmic extracts at a 1:5 ratio. The mixture was rocked at 4° C. overnight and the beads were subsequently washed 5 times with PBS. MBP or MBP/G fusion proteins were eluted with 20 mM maltose in PBS by rocking at 4° C. for an hour. Protein concentrations were determined using the Bio-Rad DC protein assay kit (Bio-Rad Laboratories, Hercules, Calif., USA). The full length fusion protein concentration was further quantitated by the Coomassie stained SDS-PAGE gel with known concentrations of bovine albumin (BSA) as the standards followed by densitometry scanning. […]
The ability of PapD to bind to the MBP/G fusions was investigated using amylose affinity chromatography (Kellermann and Ferenci, 1982). […] Periplasmic extracts from each strain containing the MBP/G proteins and PapD were subjected to amylose affinity chromatography and the eluates analyzed by SDS-PAGE (FIG. 21A) and by western blotting with anti-PapD antisera (FIG. 21B). […]

[7] = target: T2, G1′-19′WT peptide (Escherichia coli, UniProt P13720); experiment: Native polyacrylamide gel mobility shift of PapD (wild type and mutants) with G1′-19′WT peptide; format: binding, E. coli; conditions: native-PAGE assay
T2 construct: G1′-19′ denotes the 19 C-terminal amino acid residues of PapG; made in house; host or cells: synthetic peptide
From the text: The ability of the mutant chaperones to bind pilus subunits and modulate pilus assembly in vivo was correlated to their ability to bind to the G1′-19′WT peptide and to PapG in vitro. […] Similarly, mutations in Arg-8 and Lys-112 abolished the ability of PapD to bind to PapG and reconstitute the PapD-PapG complex in vitro (FIG. 7) and to bind to pilus subunits and mediate pilus assembly in vivo (cf. table 2).

[8] = target: T1, PapD; experiment: PapD complex formation with PapG truncates (acidic native gel, western blotting); format: binding, E. coli; conditions: co-expressed in KS474
Description: Periplasm containing PapD and PapG, PapG2 or PapG3 (lane 2, 3 and 4 respectively) were subjected to Gal α(1-4) Gal chromatography and eth eluates were analyzed on acidic native gel electrophoresis following western blotting using anti-PapD (A) and anti-PapG (B) antisera. Purified PapD-PapG complex was loaded-in lane 1.
PapD and the PapG-truncates were co-expressed in KS474, the truncates were induced at OD600 0.6 with 0.5 mM IPTG and PapD under the control of the arabinose promoter was induced with 0.2% arabinose. After one hour induction, periplasmic extracts were prepared and rocked with Gal α(1-4) Gal beads overnight at 4° C. and eluted with 15 μg/ml Gal α(1-4) Gal-TMSET solution as described previously (Hultgren et al., 1989; Kuehn et al., 1991). The eluates were analyzed by acidic native gel eletrophoresis (Striker et al., 1994) followed by western blotting using anti-PapD and anti-PapG antiserum.

G125′-140′: peptide of C-terminal amino acid residues 125′ to 140′ of PapG, SEQ ID NO: 20 (DQIKQLPATNTLMLSF)
binding to PapD in ELISA [1]: bound to PapD

MBP/G1′-19′: fusion of maltose binding protein and COOH-terminal residues 1′-19′ of PapG
complex formation with PapD in vitro [2]: no complexes
effect on hemagglutination ([3]; co-expression in strains producing P pili): only weak effects on the HA titer
HA titer ([3]; highest dilution of cell suspension yielding detectable HA, co-expression with pap operon): 64
reduction of the amount of pili compared to MBP alone ([4]; co-expression with pap operon): about 50%
Pilation percentage ([4]; densitometry of PapA bands, control HB101/pFJ3/pMAL-p4 = 100%): 50%
inhibition of pilus assembly ([4]; expression in cells producing P pili): weak inhibitors
PapD binding to immobilized fusion protein [5]: weakly
interaction of PapD with MBP/G protein in vivo (co-elution) ([6]; co-expressed, SDS-PAGE and western blot of eluates): only weakly
stable complexes with PapD in the eluates ([6]; silver stained IEF gel): not possible to detect stable complexes

B1: wild type PapD: periplasmic chaperone PapD of E. coli, wild type (protein, UniProt P15319 22-239, looked up)
Chaperone protein PapD: AVSLDRTRAVFDGSEKSMTLDISNDNKQLPYLAQAWIENENQEKIITGPVIATPPVQRLEPGAKSMVRLSTTPDISKLPQDRESLFYFNLREIPPRSEKANVLQIALQTKIKLFYRPAAIKTRPNEVWQDQLILNKVSGGYRIENPTPYYVTVIGLGGSEKQAEEGEFETVMLSPRSEQTVKSANYNTPYLSYINDYGGRPVLSFICNGSRCSVKKEK
mobility shift on incubation with G1′-19′WT peptide [7]: cause a mobility shift

B2: full-length PapG: P pilus tip adhesin PapG (protein)
chain: GWHNVMFYAFNDYLTTNAGNVKVIDQPQLYIPWNTGSATATYYSCSGPEFASGVYFQEYLAWMVVPKHVYTNEGFNIFLDVQSKYGWSMENENDKDFYFFVNGYEWDTWTNNGARICFYPGNMKQLNNKFNDLVFRVLLPVDLPKGHYNFPVRYIRGIQHHYYDLWQDHYKMPYDQIKQLPATNTLMLSFDNVGGCQPSTQVLNIDHGSIVIDRANGNIASQTLSIYCDVPVSVKISLLRNTPPIYNNNKFSVGLGNGWDSIISLDGVEQSEEILRWYTAGSKTVKIESRLYGEEGKRKPGELSGSMTMVLSFP
complex formation with PapD [8]: formed a complex
